Measured values: paper PMC9477738, “PIF4 enhances DNA binding of CDF2 to co-regulate target gene expression and promote Arabidopsis hypocotyl cell elongation” (Nature Plants, 2022)

B1: MBP-PIF4^bHLH (bHLH DNA-binding domain of PIF4 fused to N-terminal maltose binding protein) (domain or fragment, Arabidopsis thaliana, UniProt Q8W2F3 248-317, looked up)
chain: QRSGSNRRSRAAEVHNLSERRRRDRINERMKALQELIPHCSKTDKASILDEAIDYLKSLQLQLQVMWMGS
notes: codon-optimised for E. coli; also called PIF4 bHLH domain; PIF4^bHLH WT; source: E. coli ArcticExpress, purified (Ni-NTA, size-exclusion chromatography); not shown: MBP, N-terminal, kept
B2: MBP-PIF4^(bHLH (Mu3)) (PIF4 bHLH domain mutated in Interface 3 and Interface 4) (domain or fragment, Arabidopsis thaliana, UniProt Q8W2F3 248-317, looked up)
chain: QRSGSNRRSRAAEVHNLSERRRRDRINAAMAALAALIPHCSKTDKASILDEAIDYLKSLQLQLAVMAMGS
notes: source: E. coli ArcticExpress, purified (Ni-NTA, size-exclusion chromatography); not shown: MBP, N-terminal, kept

Target: the molecule itself
Experiment: SEC; gel filtration of a single MBP fusion protein (self-association); HiLoad 200, 25 mM Bis-Tris pH 8.0, 150 mM NaCl

| Protein | stoichiometry N |
| --- | --- |
| B1 | 4 |
| B2 | 2 |
